# Measured values reported in the nanobody polyreactivity screen of Harvey et al. (2022).
# Assay: yeast display, Sf9 membrane polyspecificity reagent, FACS + sequencing; frameworks hold sequencing errors
# Method in brief: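 A nanobody's polyreactivity label depends on the gate it was sorted from. Yeast display cells were stained with 10% biotinylated, detergent-solubilized Sf9 membrane reagent for 1 hour at 4 °C, enriched on streptavidin microbeads and sorted by FACS. The low and high (top ~1%) gates were set on anti-HA fluorescence for expression and streptavidin fluorescence for reagent binding.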
row,Sequence,polyreactivity (PSR sort gate)
1,QVQLVESGGGLVQAGGSLRLSSAASGSTFAFNAMGWYRHAHGKEREFVARITWSDGSTYYADSVKGRFTISRDNAKNTVYLQMNCLKPEDTAVYYCARDPTEQAIARWTYDYWGQGTQVTVSS,low polyreactivity
2,QVQLVESGGGLVQAGGSLRLSSAASGSTFEAYTMGWYRPAPGKERELVAAISRSGGSTYYADSVKGRFTISRDNAKNTVYLQMNSLKPEDTAVYYCAASRYIGYNYWGQGTQVNVSS,high polyreactivity
3,QVQLVESGGGLVQAGGSLRLSSAASGSTFGIYAMGWYRQAPGKERELVAAISSGGSTNYADSVKGRFTISRDNAKNTVYLQMNSLKPEDTAVYYCAVESVYEYGGYVDSAFDYWGQGTQVTVSS,low polyreactivity
4,QVQLVESGGGLVQAGGSLRLSSAASGSTFGKYARGWYRQAPGKERELVAAITVNAGRTYYADSVKGRFTISRDNAKNTVYLQLNSLKPEDTAVYYCAGVPRRYYARYYYWGQGTQVTVSS,high polyreactivity
5,QVQLVESGGGLVQAGGSLRLSSAASGSTFGPYPMGWYRPAPGKERELVATISSGGSTYYADSVKGRFTISRDNAKNTVYLQMNSLKPEDTAVYYCAARYWSIYDYWGQGTQVTVSS,low polyreactivity
6,QVQLVESGGGLVQAGGSLRLSSAASGSTFGYYAMRWYRQAPGKARELVAAISSAGSTNDADSVKGRFTISRDNAKNTVYLQMNSLKPEDTAVYYCAAKVRVRWHTGLVTRDYDCGQGTQVTVSS,high polyreactivity
7,QVQLVESGGGLVQAGGSLRLSSAASGSTFHLYAMGWYRQAPGKEREFVAAIRGRGGNTYADSVKGRFTISRDNAKNTVYLQMNSLKPEDTAVYYCAAPLLRDLRSPYSYNYWGQGTQVTVSS,low polyreactivity
8,QVQLVESGGGLVQAGGSLRLSSAASGSTFIGNAMGWYRQAPGTARELVAAITRSGGSTFYADSVKGRFTISRDNAKNTVYLQMNSLKPDDTAVYYCASKGNPYRVPCSSYPKVNYWGQGTQVTVSS,high polyreactivity
9,QVQLVESGGGLVQAGGSLRLSSAASGSTFQLYAMRLYRQAPGKETELVAAISGIGDSTYYADSVKGGFTISRDNAKNTVYLQMNSLKPEDTAVYYCAREFSDGLSGKFDYWGQGTQVTGSS,low polyreactivity
10,QVQLVESGGGLVQAGGSLRLSSAASGSTFSDYAMGWYRQAPGKERELVAGITGGGGTYYADSVKGRFTISRDNAKNTVYLQMNSLKPEDTAVYYCAAGRRHGFGYWGQGTQVTVSS,low polyreactivity
11,QVQLVESGGGLVQAGGSLRLSSAASGSTFTVNGMGWYSQAPGKERELVAAIDGGDGSTYYADSVKGRFTISRDNAKNTVYLQMTSLKPEDTAVYYCAADPPGFTQYGYWGQGTQVTVSS,low polyreactivity
12,QVQLVESGGGLVQAGGSLRLSSAASGSTFWVNTMGWYRQAPGKERELVAGSTSNGGSTSYADSVKGRFTITRDNAKNTVYLQKNSLKPEDTAVYYCNADTYPDYWAYLYDYWGQGTQVTVSS,low polyreactivity
13,QVQLVESGGGLVQAGGSLRLSSAASGSTFYQYAMGWYRQAPGKERELVAAISWDSGSTYYADSVKGRFTISRDNAKNTVYLQMNSLKPEDTAVYYCAASWYGYYDGYAVEYDYWGQGTQVTVSS,low polyreactivity
14,QVQLVESGGGLVQAGGSLRLSSAASGSTFYYNAMGWYRQAPGKEREFVAAITYTGGSTDYADSVKGRFTISRDNAKNTVYLQMNSLKPEDTAVYYCAKGTYGYISTWYDYWGQGTQVTVSS,low polyreactivity
15,QVQLVESGGGLVQAGGSLRLSSAASGSTIVLYTMGWYRQAPGKEWELVAAITNGTRTYYADSVKGRFTISRDNAKNTVYLQMNSLKPQDTAVYYCAVDGVKRGADLFYYWGHGTQVTVSS,high polyreactivity
16,QVQLVESGGGLVQAGGSLRLSSAASGSTLQYNAMGWYRQAPGKERELVASITWSDGSTYYADSVKGRFTISRDNAKNTVYLQMNSLKPEDTAVYYCNRDDQPALWSSGGYNYWGQGTQVTVSS,high polyreactivity
17,QVQLVESGGGLVQAGGSLRLSSAASGSTLVYYDRGWYRQAPGKERELVATITGTDSTYYADSVKGRFTISRDNAKNTVYLQMNSLKPVDTADCAADRAASRPVYDYWGQGTQVTVSS,low polyreactivity
18,QVQLVESGGGLVQAGGSLRLSSAASGSTSCPYAMGWYRQAPGKERELVATISWIGDRTYYADSVKGRFTISRDNAKNTFYLQMNSLKPEDTAVYYCNADYRGYANLEGDYWGQGTQVTVSS,low polyreactivity
19,QVQLVESGGGLVQAGGSLRLSSAASGYIFDLNAMGRYRQAPGKERELVAAISTGGGTYYADSVKGRFTISRDNAKNTVYLQMNSLKPEDTAVYYCAADWGYWYAEYDYWGQGTLVTVSS,low polyreactivity
20,QVQLVESGGGLVQAGGSLRLSSAASGYTYYVYAMGWYRQAPGKERELVAAISGGSNTYYADSVKGRFTISRDNAKNTVYLQMNSRKPEDTAVFYCAKSSTTYRQRARYDYWGLGTQVTVSS,high polyreactivity
21,QVQLVESGGGLVQAGGSLRLSSAATGRTFPSNAMGWYRQAPGKERELVAAISVSSGRTYYADSVKGRFTISRDNAKNTVYLLMNSLKPEDTAVYYCAALWARYPYLFGFDYWGQGTQVTVSS,high polyreactivity
22,QVQLVESGGGLVQAGGSLRLSSAAYGSIFTYNAMGWYRQAPGKERELVDTISWRGGSTYYADSVKGRFTISRDNAKNTVYLQMNSLKPEDTAVYYCDKSWRGRYDYWGQGTQVTVSS,high polyreactivity

row,Sequence,polyreactivity (PSR sort gate)
1,QVQLVESGGGLVQAGGSLRLSSAGSGFTFYKNAMGWYRQAPGKERELVAAITSSGGSTYYADSVKGRFTISRDNEKNTVYLQMNSLKPEDTAVYYCNKVYSKHYGYWGQGSQVTVSS,high polyreactivity
2,QVQLVESGGGLVQAGGSLRLSSAPSGFTFDENAMGWYRQAPGINYSGASTYYADSVKGRFTISRDNAKNTVYLQMNSLKPEDTAVYYCAAEVVAQMNYWGQGTQVTVSS,low polyreactivity
3,QVQLVESGGGLVQAGGSLRLSSASSGSTFWIYAMGWYRQAPGKEREMVASIRRACNTYADSVKGRFTISRDNAKNTVYLQMNSLKPEDTAVYYCNARLYLPYGYRRSNGYESDYWGQGTQVTVSS,high polyreactivity
4,QVQLVESGGGLVQAGGSLRLSWAASGFTFTSYTMGWYTPAPGKERELVAAISNTGGSTYYADSVKGRFTISRDNAKNTVYLQMNSLKPEDTAVYYCAARTHTYGKFWRYYWGQGTQVTVSS,low polyreactivity
5,QVQLVESGGGLVQAGGSLRLSWAASGITFRKNAMGWYRQAPGKERQLVATITRRGGSTFYADSVKGRFTISRDNANNTVYLQFKSLKPVDSAVYYFAADYATRDGDYESWGQGTQVTVSS,high polyreactivity
6,QVQLVESGGGLVQAGGSLRLSWAASGLIFYDNMGWYRQAPGKERELVASISSSGGSTSYADSVKGRFTISRDNAKNTVYLQMNSLKPEDTAVYYCAAVRRGYKYVYWGQGTQVTVSS,low polyreactivity
7,QVQLVESGGGLVQAGGSLRLSWAASGLIFYWYAMGWYRQAPGKERELVAAINRGGSTYYADSVKGRFTISRDNAKNTVYLQMNSLKPEDTAVYYCAAGGYRGRKRFGWDYTYNYWGQGTQVTVSS,low polyreactivity
8,QVQLVESGGGLVQAGGSLRLSWAASGLTFTHNAMGWYRQAHGKERELVAAISRRGGSTYYADSVKGRFTISRDNAKNTVYLQRNSLKPEDTAVYYCNAPVKVRATTNWEYDYWGQGTEVTVSS,high polyreactivity
9,QVQLVESGGGLVQAGGSLRLSWAASGNIFLYYAMGWYRQAPGKERELVPDIDSSGASTYYADSVKGRFTISRDNAKNTVYLQMNSLKPEDTAVYYCAAEFHWWYAGDDYGYWGQGTQVTVSS,low polyreactivity
10,QVQLVESGGGLVQAGGSLRLSWAASGSFFKRNAMGSYRQAPGKEREFVAAITYNGGSTYYADSVKGRFTISRDNAMTTVYLQMNSLKPEDTAVYDCNNLYSRAQFRGGDYWAQGTQVTVSS,high polyreactivity
11,QVQLVESGGGLVQAGGSLRLSWAASGSIFQDYAMGWYRQAPGKERDLVAAISSSGTSTYYADSVKGRCTISRDNAKNTVSLQMNSLQPEDTAVFYCAAPPGRVARYDYWGQGTQVTVSS,low polyreactivity
12,QVQLVESGGGLVQAGGSLRLSWAASGSIFSIYAMGWYRQAPGKERDLVASITRSSGRTYYAYSVKGRFTISRDNAKNNVYLQMNSLKPEDTAVYYCAKDYIPLALDADDYCGQGTQVTVSS,low polyreactivity
13,QVQLVESGGGLVQAGGSLRLSWAASGSIFYWNAMGWYRQAPGKERELVATITITTSTNYADSVKGRFTISRDNAKNTVYLQMNSLKPEDTAVYYCNAGAPYRYLDEYNYWGQGTQVTVSS,low polyreactivity
14,QVQLVESGGGLVQAGGSLRLSWAASGSILLGYAMGWYRQAPGKERELVAAISRNGGSTYYADSVKGRFTISRDNAKNTVYLQMNSLKPEDTAVYYCNKYSGYKGTDGGDYWGQGTQVTVSS,low polyreactivity
15,QVQLVESGGGLVQAGGSLRLSWAASGYTFGKNAMGWYRQAPGKERELVAAISRSGGSTFYADSVKGRFTISRDNAKNTVYLQMNSLKPEDTAVYYCAAESYGYSAPYDYWGQGTQVTVSS,high polyreactivity
16,QVQLVESGGGLVQAGGSLRLSYAASGSIFGRYVMGWYRQAPGKERELVAAIKRSGGRTYYADSVKGRFTISRDNAKNTVYLQMNSLKPEDTAVYYCATYTGYSASKEVPYDYWGQGTQVTVSS,high polyreactivity
17,QVQLVESGGGLVQAGGSLRLTCAASAFIFHFNAMGWYRQAPGKERELVAAISRTGGTTYYADSVKGRFTISRDNAKNTVYLQMNSLKPEDTAVYYCAAYSKYGQHYDYWGQGTQVTVSS,high polyreactivity
18,QVQLVESGGGLVQAGGSLRLTCAASGFIFDTYAMGWYRQAPGKERELVAAISWTGTDTYYADSVKGRFTISRDNAKNTVYLQMNSLKPEDTAVYYCAARSRYKYSPSGDYWGQGTQVTVSS,high polyreactivity
19,QVQLVESGGGLVQAGGSLRLTCAASGFIFPNNAMGWYRQAPGKESELVAAISYSGGSTNYADSVKARFTISRDNAKNTVYLQMNSLKPEDTAVYYCAKADPAYLWGLREYDYWGQGTQVTVSS,low polyreactivity
20,QVQLVESGGGLVQAGGSLRLTCAASGFIFYYYTIGWYRQAPGKERELVAAIRTDGNTYYADSVKGRFTISRDNAKNTVYFQMNSLKPEDTAVYYCAAKIPRPYAMDYWGQGTQVTVSS,low polyreactivity
21,QVQLVESGGGLVQAGGSLRLTCAASGFIYADNAMGWDRQAPGQERELVAAISGSGGGTYYADSVKGRFTISRDNAKNTVYLQMNSLKPEDTAVYYCAKSQYHRFDYWGQGTQVTVSS,low polyreactivity
